Measured values: paper PMC2783222 (2010)

Assays:
[1] = target: T1, ADAM11 (Homo sapiens, UniProt O75078); experiment: LGI1-AP fusion binding to transfected COS-7 cells
T1 chain: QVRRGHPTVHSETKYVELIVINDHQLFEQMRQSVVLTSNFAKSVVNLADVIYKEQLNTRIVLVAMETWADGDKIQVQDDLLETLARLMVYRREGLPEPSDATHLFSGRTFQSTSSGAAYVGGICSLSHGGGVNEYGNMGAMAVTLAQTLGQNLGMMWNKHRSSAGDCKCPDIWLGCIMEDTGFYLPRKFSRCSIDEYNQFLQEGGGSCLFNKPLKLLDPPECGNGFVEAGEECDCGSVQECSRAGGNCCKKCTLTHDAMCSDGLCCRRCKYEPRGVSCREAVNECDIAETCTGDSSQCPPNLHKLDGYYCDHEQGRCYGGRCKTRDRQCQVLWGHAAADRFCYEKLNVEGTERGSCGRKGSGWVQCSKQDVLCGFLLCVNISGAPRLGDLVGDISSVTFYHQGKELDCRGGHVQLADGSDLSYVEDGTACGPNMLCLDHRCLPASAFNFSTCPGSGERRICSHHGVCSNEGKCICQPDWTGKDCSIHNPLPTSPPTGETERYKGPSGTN

[2] = target: T2, ADAM22 (Homo sapiens, UniProt Q9P0K1); experiment: LGI1-AP fusion binding to transfected COS-7 cells
T2 chain: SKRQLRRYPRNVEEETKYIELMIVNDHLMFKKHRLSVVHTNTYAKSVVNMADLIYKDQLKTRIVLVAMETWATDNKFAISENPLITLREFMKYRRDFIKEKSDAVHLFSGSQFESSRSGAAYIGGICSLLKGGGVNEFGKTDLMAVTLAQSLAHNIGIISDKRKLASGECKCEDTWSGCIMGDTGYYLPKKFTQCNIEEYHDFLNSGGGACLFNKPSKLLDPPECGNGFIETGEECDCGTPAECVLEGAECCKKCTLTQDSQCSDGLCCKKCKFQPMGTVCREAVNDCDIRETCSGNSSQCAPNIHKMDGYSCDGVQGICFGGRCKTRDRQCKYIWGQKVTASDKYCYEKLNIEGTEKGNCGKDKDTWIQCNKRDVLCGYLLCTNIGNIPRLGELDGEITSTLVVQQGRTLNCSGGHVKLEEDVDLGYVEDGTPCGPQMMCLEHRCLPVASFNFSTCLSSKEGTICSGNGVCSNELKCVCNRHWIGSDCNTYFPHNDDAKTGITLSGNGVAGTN

[3] = target: T3, ADAM23 (Homo sapiens, UniProt O75077); experiment: LGI1-AP fusion binding to transfected COS-7 cells
T3 chain: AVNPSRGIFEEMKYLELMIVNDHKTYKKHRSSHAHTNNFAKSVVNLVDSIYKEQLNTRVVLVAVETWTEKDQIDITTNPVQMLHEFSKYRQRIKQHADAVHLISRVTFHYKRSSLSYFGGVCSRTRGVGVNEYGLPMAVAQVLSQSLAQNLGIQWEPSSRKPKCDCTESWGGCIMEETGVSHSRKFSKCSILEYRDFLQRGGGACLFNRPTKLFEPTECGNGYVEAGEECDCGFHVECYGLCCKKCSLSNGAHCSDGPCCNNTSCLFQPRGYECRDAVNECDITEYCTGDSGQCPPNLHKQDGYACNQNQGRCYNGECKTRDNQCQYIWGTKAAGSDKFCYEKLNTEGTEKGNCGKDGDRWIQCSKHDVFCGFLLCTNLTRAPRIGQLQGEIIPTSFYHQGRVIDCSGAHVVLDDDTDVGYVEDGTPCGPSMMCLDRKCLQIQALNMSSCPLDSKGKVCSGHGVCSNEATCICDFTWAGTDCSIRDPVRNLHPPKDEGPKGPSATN

[4] = target: T3, ADAM23; experiment: LGI1-AP fusion binding to transfected COS-7 cells, Scatchard

Kd [1]: 15 nM
Kd [2]: 15 nM
Kd [3]: 15 nM
Kd [4]: 10 nM
B1: LGI1 (protein)
chain: KKPAKPKCPAVCTCTKDNALCENARSIPRTVPPDVISLSFVRSGFTEISEGSFLFTPSLQLLLFTSNSFDVISDDAFIGLPHLEYLFIENNNIKSISRHTFRGLKSLIHLSLANNNLQTLPKDIFKGLDSLTNVDLRGNSFNCDCKLKWLVEWLGHTNATVEDIYCEGPPEYKKRKINSLSSKDFDCIITEFAKSQDLPYQSLSIDTFSYLNDEYVVIAQPFTGKCIFLEWDHVEKTFRNYDNITGTSTVVCKPIVIETQLYVIVAQLFGGSHIYKRDSFANKFIKIQDIEILKIRKPNDIETFKIENNWYFVVADSSKAGFTTIYKWNGNGFYSHQSLHAWYRDTDVEYLEIVRTPQTLRTPHLILSSSSQRPVIYQWNKATQLFTNQTDIPNMEDVYAVKHFSVKGDVYICLTRFIGDSKVMKWGGSSFQDIQRMPSRGSMVFQPLQINNYQYAILGSDYSFTQVYNWDAEKAKFVKFQELNVQAPRSFTHVSINKRNFLFASSFKGNTQIYKHVIVDLSA
